Paper PMC9482650, “Quantitative fragmentomics allow affinity mapping of interactomes” (Nature Communications, 2022)

T1: APBA1_1, Q02410
T1 sequence (Q02410 651-752, limits assumed, looked up): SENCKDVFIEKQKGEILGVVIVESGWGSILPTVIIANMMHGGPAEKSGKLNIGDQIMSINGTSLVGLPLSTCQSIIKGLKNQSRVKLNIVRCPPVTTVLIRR

T2: GRIP1_2, Q9Y3R0
T2 sequence (Q9Y3R0 145-248, limits assumed, looked up): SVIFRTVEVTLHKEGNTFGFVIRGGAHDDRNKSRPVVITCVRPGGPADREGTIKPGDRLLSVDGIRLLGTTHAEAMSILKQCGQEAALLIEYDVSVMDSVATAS

T3: LNX2_3, Q8N448
T3 sequence (Q8N448 463-564, limits assumed, looked up): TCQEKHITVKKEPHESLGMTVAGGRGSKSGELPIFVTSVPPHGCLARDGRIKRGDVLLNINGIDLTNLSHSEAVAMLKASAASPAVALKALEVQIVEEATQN

T4: MPDZ_12, O75970
T4 sequence (O75970 1857-1958, limits assumed, looked up): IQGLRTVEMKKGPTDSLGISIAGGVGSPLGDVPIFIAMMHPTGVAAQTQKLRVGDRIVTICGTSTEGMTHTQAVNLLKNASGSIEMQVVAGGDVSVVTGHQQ

T5: MPDZ_5, O75970
T5 sequence (O75970 695-796, limits assumed, looked up): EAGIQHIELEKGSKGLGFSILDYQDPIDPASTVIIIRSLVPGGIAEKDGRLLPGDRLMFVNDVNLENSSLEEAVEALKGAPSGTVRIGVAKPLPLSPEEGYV

T6: PDZD2_2, O15018
T6 sequence (O15018 329-429, limits assumed, looked up): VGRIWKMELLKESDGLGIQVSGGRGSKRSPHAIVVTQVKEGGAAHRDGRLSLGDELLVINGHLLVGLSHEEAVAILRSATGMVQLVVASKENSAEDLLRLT

T7: PTPN13_1, Q12923
T7 sequence (Q12923 1088-1188, limits assumed, looked up): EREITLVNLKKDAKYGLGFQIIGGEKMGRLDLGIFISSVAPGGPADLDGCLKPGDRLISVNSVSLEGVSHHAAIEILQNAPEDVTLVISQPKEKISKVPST

T8: RAPGEF6, Q8TEU7
T8 sequence (Q8TEU7 525-625, limits assumed, looked up): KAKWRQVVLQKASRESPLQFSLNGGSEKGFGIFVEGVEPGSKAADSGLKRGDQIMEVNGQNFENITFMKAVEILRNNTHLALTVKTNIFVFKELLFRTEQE

T9: RHPN1, Q8TCX5
T9 sequence (Q8TCX5 508-602, limits assumed, looked up): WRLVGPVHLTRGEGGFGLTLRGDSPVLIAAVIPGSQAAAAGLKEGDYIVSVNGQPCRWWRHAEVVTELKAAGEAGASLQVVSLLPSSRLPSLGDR

T10: TIAM2, Q8IVF5
T10 sequence (Q8IVF5 885-986, limits assumed, looked up): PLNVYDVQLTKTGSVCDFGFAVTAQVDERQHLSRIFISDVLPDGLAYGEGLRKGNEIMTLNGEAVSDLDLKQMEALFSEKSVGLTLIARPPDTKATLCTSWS


Target: T1, APBA1_1, Q02410
Assay: holdup assay
Parameters: key: below the threshold = too weak to quantify, mostly under pKd 3.1 to 4
Conditions: plain residues with an end cap or a label only (N-terminal biotin on a linker: ado-ado)

pKd | Binder
below the threshold | GVHSNDHSVV [LPAR1, Q92633]
below the threshold | DYSNLRETDI [ADRA1D, P25100]

Target: DLG1_1, Q12959
Assay: holdup assay
Parameters: key: below the threshold = too weak to quantify, mostly under pKd 3.1 to 4
Conditions: plain residues with an end cap or a label only (N-terminal biotin on a linker: ado-ado)

pKd | Binder
3.74 | GVHSNDHSVV [LPAR1, Q92633]
4.1 | DYSNLRETDI [ADRA1D, P25100]

Target: DLG2_3, Q15700
Assay: holdup assay
Parameters: key: below the threshold = too weak to quantify, mostly under pKd 3.1 to 4
Conditions: plain residues with an end cap or a label only (N-terminal biotin on a linker: ado-ado)

pKd | Binder
below the threshold | GVHSNDHSVV [LPAR1, Q92633]
below the threshold | DYSNLRETDI [ADRA1D, P25100]

Target: DLG4_1, P78352
Sequence (P78352 62-152): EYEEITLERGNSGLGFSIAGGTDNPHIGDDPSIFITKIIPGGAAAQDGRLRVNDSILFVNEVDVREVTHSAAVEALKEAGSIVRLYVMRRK
Assay: holdup assay
Parameters: key: below the threshold = too weak to quantify, mostly under pKd 3.1 to 4
Conditions: plain residues with an end cap or a label only (N-terminal biotin on a linker: ado-ado)

pKd | Binder
below the threshold | GVHSNDHSVV [LPAR1, Q92633]
3.89 | DYSNLRETDI [ADRA1D, P25100]

Target: DLG4_3, P78352
Sequence (P78352 306-403): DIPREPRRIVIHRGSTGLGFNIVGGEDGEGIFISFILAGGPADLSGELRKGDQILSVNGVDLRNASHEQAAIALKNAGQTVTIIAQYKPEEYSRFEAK
Assay: holdup assay
Parameters: key: below the threshold = too weak to quantify, mostly under pKd 3.1 to 4
Conditions: plain residues with an end cap or a label only (N-terminal biotin on a linker: ado-ado)

pKd | Binder
below the threshold | GVHSNDHSVV [LPAR1, Q92633]
below the threshold | DYSNLRETDI [ADRA1D, P25100]

Target: FRMPD2_1, Q68DX3
Sequence (Q68DX3 770-861): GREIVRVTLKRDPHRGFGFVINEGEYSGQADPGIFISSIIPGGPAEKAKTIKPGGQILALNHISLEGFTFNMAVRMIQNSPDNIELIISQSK
Assay: holdup assay
Parameters: key: below the threshold = too weak to quantify, mostly under pKd 3.1 to 4
Conditions: plain residues with an end cap or a label only (N-terminal biotin on a linker: ado-ado)

pKd | Binder
below the threshold | GVHSNDHSVV [LPAR1, Q92633]
below the threshold | DYSNLRETDI [ADRA1D, P25100]

Target: FRMPD3, Q5JV73
Sequence (Q5JV73 12-100): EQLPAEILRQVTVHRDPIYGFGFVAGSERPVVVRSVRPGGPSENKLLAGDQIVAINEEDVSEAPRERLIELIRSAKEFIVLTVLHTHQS
Assay: holdup assay
Parameters: key: below the threshold = too weak to quantify, mostly under pKd 3.1 to 4
Conditions: plain residues with an end cap or a label only (N-terminal biotin on a linker: ado-ado)

pKd | Binder
below the threshold | GVHSNDHSVV [LPAR1, Q92633]
below the threshold | DYSNLRETDI [ADRA1D, P25100]

Target: T2, GRIP1_2, Q9Y3R0
Assay: holdup assay
Parameters: key: below the threshold = too weak to quantify, mostly under pKd 3.1 to 4
Conditions: plain residues with an end cap or a label only (N-terminal biotin on a linker: ado-ado)

pKd | Binder
below the threshold | GVHSNDHSVV [LPAR1, Q92633]
below the threshold | DYSNLRETDI [ADRA1D, P25100]

Target: GRIP2_3, Q9C0E4
Sequence (Q9C0E4 238-339): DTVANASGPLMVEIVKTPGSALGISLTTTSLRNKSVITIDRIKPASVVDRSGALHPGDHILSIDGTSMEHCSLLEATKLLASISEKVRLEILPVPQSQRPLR
Assay: holdup assay
Parameters: key: below the threshold = too weak to quantify, mostly under pKd 3.1 to 4
Conditions: plain residues with an end cap or a label only (N-terminal biotin on a linker: ado-ado)

pKd | Binder
below the threshold | GVHSNDHSVV [LPAR1, Q92633]
below the threshold | DYSNLRETDI [ADRA1D, P25100]

Target: GRIP2_7, Q9C0E4
Sequence (Q9C0E4 934-1023): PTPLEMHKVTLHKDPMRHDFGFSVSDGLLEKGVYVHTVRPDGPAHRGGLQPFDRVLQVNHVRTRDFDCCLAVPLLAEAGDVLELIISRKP
Assay: holdup assay
Parameters: key: below the threshold = too weak to quantify, mostly under pKd 3.1 to 4
Conditions: plain residues with an end cap or a label only (N-terminal biotin on a linker: ado-ado)

pKd | Binder
below the threshold | GVHSNDHSVV [LPAR1, Q92633]
below the threshold | DYSNLRETDI [ADRA1D, P25100]

Target: HTRA2, O43464
Sequence (O43464 355-458): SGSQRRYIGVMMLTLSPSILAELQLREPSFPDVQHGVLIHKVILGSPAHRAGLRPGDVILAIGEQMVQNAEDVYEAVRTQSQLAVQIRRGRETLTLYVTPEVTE
Assay: holdup assay
Parameters: key: below the threshold = too weak to quantify, mostly under pKd 3.1 to 4
Conditions: plain residues with an end cap or a label only (N-terminal biotin on a linker: ado-ado)

pKd | Binder
below the threshold | GVHSNDHSVV [LPAR1, Q92633]
below the threshold | DYSNLRETDI [ADRA1D, P25100]

Target: Inadl_1, Q8NI35
Sequence (Q8NI35 113-229): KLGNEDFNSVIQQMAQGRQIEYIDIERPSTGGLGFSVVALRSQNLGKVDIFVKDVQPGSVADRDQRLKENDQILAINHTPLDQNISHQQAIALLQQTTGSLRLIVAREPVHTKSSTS
Assay: holdup assay
Parameters: key: below the threshold = too weak to quantify, mostly under pKd 3.1 to 4
Conditions: plain residues with an end cap or a label only (N-terminal biotin on a linker: ado-ado)

pKd | Binder
below the threshold | GVHSNDHSVV [LPAR1, Q92633]
below the threshold | DYSNLRETDI [ADRA1D, P25100]

Target: LAP2, Q96RT1
Sequence (Q96RT1 other isoform, or with tags, fused parts or gaps): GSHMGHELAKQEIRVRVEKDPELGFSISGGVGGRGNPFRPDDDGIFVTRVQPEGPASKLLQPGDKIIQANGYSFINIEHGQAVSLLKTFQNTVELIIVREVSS
Assay: holdup assay
Parameters: key: below the threshold = too weak to quantify, mostly under pKd 3.1 to 4
Conditions: plain residues with an end cap or a label only (N-terminal biotin on a linker: ado-ado)

pKd | Binder
below the threshold | GVHSNDHSVV [LPAR1, Q92633]
3.84 | DYSNLRETDI [ADRA1D, P25100]

Target: LNX1_2, Q8TBB1
Sequence (Q8TBB1 371-470): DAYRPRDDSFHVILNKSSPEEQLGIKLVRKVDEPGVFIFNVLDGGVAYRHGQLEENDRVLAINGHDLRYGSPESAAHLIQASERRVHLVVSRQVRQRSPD
Assay: holdup assay
Parameters: key: below the threshold = too weak to quantify, mostly under pKd 3.1 to 4
Conditions: plain residues with an end cap or a label only (N-terminal biotin on a linker: ado-ado)

pKd | Binder
below the threshold | GVHSNDHSVV [LPAR1, Q92633]
below the threshold | DYSNLRETDI [ADRA1D, P25100]

Target: T3, LNX2_3, Q8N448
Assay: holdup assay
Parameters: key: below the threshold = too weak to quantify, mostly under pKd 3.1 to 4
Conditions: plain residues with an end cap or a label only (N-terminal biotin on a linker: ado-ado)

pKd | Binder
below the threshold | GVHSNDHSVV [LPAR1, Q92633]
below the threshold | DYSNLRETDI [ADRA1D, P25100]

Target: MAGI2_2, Q86UL8
Sequence (Q86UL8 410-522): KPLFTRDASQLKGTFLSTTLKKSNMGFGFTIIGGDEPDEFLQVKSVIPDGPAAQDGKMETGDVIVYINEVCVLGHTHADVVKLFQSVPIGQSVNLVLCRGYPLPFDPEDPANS
Assay: holdup assay
Parameters: key: below the threshold = too weak to quantify, mostly under pKd 3.1 to 4
Conditions: plain residues with an end cap or a label only (N-terminal biotin on a linker: ado-ado)

pKd | Binder
3.69 | GVHSNDHSVV [LPAR1, Q92633]
below the threshold | DYSNLRETDI [ADRA1D, P25100]

Target: MAST2, Q6P0Q8
Sequence (Q6P0Q8 1099-1202): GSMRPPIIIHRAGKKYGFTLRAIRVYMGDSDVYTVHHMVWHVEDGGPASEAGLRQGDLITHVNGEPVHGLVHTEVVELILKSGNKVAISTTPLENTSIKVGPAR
Assay: holdup assay
Parameters: key: below the threshold = too weak to quantify, mostly under pKd 3.1 to 4
Conditions: plain residues with an end cap or a label only (N-terminal biotin on a linker: ado-ado)

pKd | Binder
4.12 | GVHSNDHSVV [LPAR1, Q92633]
5.22 | DYSNLRETDI [ADRA1D, P25100]

Target: T4, MPDZ_12, O75970
Assay: holdup assay
Parameters: key: below the threshold = too weak to quantify, mostly under pKd 3.1 to 4
Conditions: plain residues with an end cap or a label only (N-terminal biotin on a linker: ado-ado)

pKd | Binder
below the threshold | GVHSNDHSVV [LPAR1, Q92633]
below the threshold | DYSNLRETDI [ADRA1D, P25100]

Target: T5, MPDZ_5, O75970
Assay: holdup assay
Parameters: key: below the threshold = too weak to quantify, mostly under pKd 3.1 to 4
Conditions: plain residues with an end cap or a label only (N-terminal biotin on a linker: ado-ado)

pKd | Binder
below the threshold | GVHSNDHSVV [LPAR1, Q92633]
below the threshold | DYSNLRETDI [ADRA1D, P25100]

Target: NHERF4_1, Q86UT5-2
Sequence (Q86UT5 other isoform, or with tags, fused parts or gaps): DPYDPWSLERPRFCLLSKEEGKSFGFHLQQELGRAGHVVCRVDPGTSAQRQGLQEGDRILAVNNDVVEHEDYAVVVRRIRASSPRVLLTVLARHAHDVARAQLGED
Assay: holdup assay
Parameters: key: below the threshold = too weak to quantify, mostly under pKd 3.1 to 4
Conditions: plain residues with an end cap or a label only (N-terminal biotin on a linker: ado-ado)

pKd | Binder
below the threshold | GVHSNDHSVV [LPAR1, Q92633]
below the threshold | DYSNLRETDI [ADRA1D, P25100]

Target: NOS1, P29475
Sequence (P29475 9-101): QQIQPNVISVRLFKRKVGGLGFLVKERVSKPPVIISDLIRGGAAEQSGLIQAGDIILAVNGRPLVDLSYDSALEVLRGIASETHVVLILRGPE
Assay: holdup assay
Parameters: key: below the threshold = too weak to quantify, mostly under pKd 3.1 to 4
Conditions: plain residues with an end cap or a label only (N-terminal biotin on a linker: ado-ado)

pKd | Binder
below the threshold | GVHSNDHSVV [LPAR1, Q92633]
below the threshold | DYSNLRETDI [ADRA1D, P25100]

Target: PARD3_3, Q8TEW0
Sequence (Q8TEW0 582-685): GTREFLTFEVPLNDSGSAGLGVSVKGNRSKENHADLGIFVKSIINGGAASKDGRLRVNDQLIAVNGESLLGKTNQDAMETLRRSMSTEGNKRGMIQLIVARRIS
Assay: holdup assay
Parameters: key: below the threshold = too weak to quantify, mostly under pKd 3.1 to 4
Conditions: plain residues with an end cap or a label only (N-terminal biotin on a linker: ado-ado)

pKd | Binder
below the threshold | GVHSNDHSVV [LPAR1, Q92633]
3.51 | DYSNLRETDI [ADRA1D, P25100]

Target: T6, PDZD2_2, O15018
Assay: holdup assay
Parameters: key: below the threshold = too weak to quantify, mostly under pKd 3.1 to 4
Conditions: plain residues with an end cap or a label only (N-terminal biotin on a linker: ado-ado)

pKd | Binder
4.99 | GVHSNDHSVV [LPAR1, Q92633]
4.18 | DYSNLRETDI [ADRA1D, P25100]

Target: T7, PTPN13_1, Q12923
Assay: holdup assay
Parameters: key: below the threshold = too weak to quantify, mostly under pKd 3.1 to 4
Conditions: plain residues with an end cap or a label only (N-terminal biotin on a linker: ado-ado)

pKd | Binder
below the threshold | GVHSNDHSVV [LPAR1, Q92633]
below the threshold | DYSNLRETDI [ADRA1D, P25100]

Target: T8, RAPGEF6, Q8TEU7
Assay: holdup assay
Parameters: key: below the threshold = too weak to quantify, mostly under pKd 3.1 to 4
Conditions: plain residues with an end cap or a label only (N-terminal biotin on a linker: ado-ado)

pKd | Binder
below the threshold | GVHSNDHSVV [LPAR1, Q92633]
below the threshold | DYSNLRETDI [ADRA1D, P25100]

Target: T9, RHPN1, Q8TCX5
Assay: holdup assay
Parameters: key: below the threshold = too weak to quantify, mostly under pKd 3.1 to 4
Conditions: plain residues with an end cap or a label only (N-terminal biotin on a linker: ado-ado)

pKd | Binder
3.78 | GVHSNDHSVV [LPAR1, Q92633]
4.35 | DYSNLRETDI [ADRA1D, P25100]

Target: SNX27, Q96L92
Assay: holdup assay
Parameters: key: below the threshold = too weak to quantify, mostly under pKd 3.1 to 4
Conditions: plain residues with an end cap or a label only (N-terminal biotin on a linker: ado-ado)

pKd | Binder
below the threshold | GVHSNDHSVV [LPAR1, Q92633]
4.21 | DYSNLRETDI [ADRA1D, P25100]

Target: T10, TIAM2, Q8IVF5
Assay: holdup assay
Parameters: key: below the threshold = too weak to quantify, mostly under pKd 3.1 to 4
Conditions: plain residues with an end cap or a label only (N-terminal biotin on a linker: ado-ado)

pKd | Binder
3.94 | GVHSNDHSVV [LPAR1, Q92633]
below the threshold | DYSNLRETDI [ADRA1D, P25100]
